Experimental findings from the supplement of paper PMC7877785 are described below.

The data set is described as follows: self-splicing fitness, log relative to wild type (ln ratio); higher = more splicing; Tetrahymena group I intron in knt gene, E. coli kanamycin selection, DiMSum; sequences stand for … in CUCUCU…GGAGGGAAAAGUUAUCAGGCAUGCACCUGGUAGCUAGUCUUUAAACCAAUAGAUUGCAUCGGUUUAAAAGGCAAGACCGUCAAAUUGCGGGAAAGGGGUCAACAGCCGUUCAGUACCAAGUCUCAGGGGAAACUUUGAGAUGGCCUUGCAAAGGGUAUGGUAAUAAGCUGACGGACAUGGUCCUAACCACGCAGCCAAGUCCUAAGUCAACAGAUCUUCUGUUGAUAUGGAUGCAGUUCACAGACUAAAUGUCGGUCGGGGAAGAUGUAUUCUUCUCAUAAGAUAUAGUCGGACCUCUCCUUAAUGGGAGCUAGCGGAUGAAGUGAUGCAACACUGGAGCCGCUGGGAACUAAUUUGUAUGCGAAAGUAUAUUGAUUAGUUUUGGAGUACUCGUGGUCG
The gist of the method:
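Library with all eight P1ex-region intron nucleotides randomised, intron inside the knt kanamycin-resistance gene on pET-22b(+), in E. coli BL21(DE3). Cells grew overnight at 37°C or 30°C on LB agar with or without 25 μg/mL kanamycin (plus 100 μg/mL carbenicillin, 50 μM IPTG, 0.2% rhamnose), in six replicate transformations. Pooled colonies were amplicon-sequenced on Illumina HiSeq 2500. DiMSum fitness is the error-weighted combination of wild-type-normalised replicate fold changes, kanamycin versus none.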

± gives the uncertainty stated by the source.

For the sequence CUGUAGCAAUAUUACGGUCG, the “self-splicing fitness (ln)” value was -0.455 ± 0.09 (30 °C) and 0.323 ± 0.12 (37 °C).

With CUGUAGCAAUAUUACGUACA, the “self-splicing fitness (ln)” value by setting is: (30 °C) -3.41 ± 0.27; (37 °C) -1.65 ± 0.18. For CUGUAGCAAUAUUACGUCGC, the “self-splicing fitness (ln)” value by setting is: (30 °C) -2.89 ± 0.28; (37 °C) -3.19 ± 0.4. Taken in the same sequence, the figures for CUGUAGCAAUAUUACGUGAC were -0.572 ± 0.098 and -0.0647 ± 0.16. Taken in the same sequence, the figures for CUGUAGCAAUAUUACGUGGU were -3.42 ± 0.24 and -2.75 ± 0.28. Taken in the same sequence, the figures for CUGUAGCAAUAUUACGUGUG were -1.79 ± 0.058 and -0.37 ± 0.071.

Take CUUAAGCAAUAUUACGAUCU: the “self-splicing fitness (ln)” value by setting is: (30 °C) -3.14 ± 0.37; (37 °C) -1.48 ± 0.31. The like results for CUUAAGCAAUAUUACGCAGA were, in that order, -3.41 ± 0.36 and -1.93 ± 0.24. The like results for CUUAAGCAAUAUUACGCUCU were, in that order, -2.77 ± 0.13 and -2.81 ± 0.32.

On to CUUAAGCAAUAUUACGGAGC, for which the “self-splicing fitness (ln)” value (37 °C) is -4.02 ± 0.39. Turning to CUUAAGCAAUAUUACGGCAC, the “self-splicing fitness (ln)” value (30 °C) was -3.43 ± 0.43. CUUAAGCAAUAUUACGGCGC: the “self-splicing fitness (ln)” value was -3.46 ± 0.37 (30 °C) and -2.7 ± 0.28 (37 °C).

For the sequence CUUAAGCAAUAUUACGGUCC, the “self-splicing fitness (ln)” value (30 °C) was -1.36 ± 0.29. On to CUUCAGCAAUAUUACGAACG, for which the “self-splicing fitness (ln)” value is, setting by setting: (30 °C) -0.295 ± 0.062; (37 °C) 0.406 ± 0.093. With CUUCAGCAAUAUUACGACAC, the “self-splicing fitness (ln)” value (37 °C) was -1.11 ± 0.24. For CUUCAGCAAUAUUACGACUU, the “self-splicing fitness (ln)” value is -4.07 ± 0.29 (30 °C) and -2.34 ± 0.21 (37 °C). CUUCAGCAAUAUUACGAGAU: the “self-splicing fitness (ln)” value is -3.35 ± 0.23 (30 °C) and -2.43 ± 0.26 (37 °C). Regarding CUUCAGCAAUAUUACGAUUU, the “self-splicing fitness (ln)” value (30 °C) was -3.34 ± 0.21 and the “self-splicing fitness (ln)” value (37 °C) is -2.33 ± 0.18.

On to CUUCAGCAAUAUUACGCACC, for which the “self-splicing fitness (ln)” value is, setting by setting: (30 °C) -3.9 ± 0.47; (37 °C) -2.61 ± 0.35. For CUUCAGCAAUAUUACGCAUA, the “self-splicing fitness (ln)” value is -4.27 ± 0.37 (30 °C) and -1.82 ± 0.17 (37 °C). Taken in the same sequence, the figures for CUUCAGCAAUAUUACGCCGU were -3.17 ± 0.35 and -2.05 ± 0.29. CUUCAGCAAUAUUACGCGUC: the “self-splicing fitness (ln)” value was -2.6 ± 0.23 (30 °C) and -0.821 ± 0.14 (37 °C). Taken in the same sequence, the figures for CUUCAGCAAUAUUACGGGCA were -3.21 ± 0.4 and -2.64 ± 0.27.

Regarding CUUCAGCAAUAUUACGGUAC, the “self-splicing fitness (ln)” value is, setting by setting: (30 °C) -3.21 ± 0.35; (37 °C) -2.02 ± 0.33. Taken in the same sequence, the figures for CUUCAGCAAUAUUACGGUAU were -3.47 ± 0.35 and -2 ± 0.2. For the sequence CUUCAGCAAUAUUACGGUUU, the “self-splicing fitness (ln)” value by setting is: (30 °C) -3.8 ± 0.15; (37 °C) -2.55 ± 0.13. As for CUUCAGCAAUAUUACGUAUC, the “self-splicing fitness (ln)” value reads like this: (30 °C) -4.15 ± 0.27; (37 °C) -2.48 ± 0.23. For the sequence CUUCAGCAAUAUUACGUCGC, the “self-splicing fitness (ln)” value is, setting by setting: (30 °C) -2.22 ± 0.36; (37 °C) -2.3 ± 0.42. The like results for CUUCAGCAAUAUUACGUGAU were, in that order, -3.65 ± 0.12 and -2.55 ± 0.12. For the sequence CUUGAGCAAUAUUACGAACG, the “self-splicing fitness (ln)” value was -0.921 ± 0.13 (30 °C) and 0.12 ± 0.18 (37 °C). Regarding CUUGAGCAAUAUUACGAAGG, under “30 °C”, the “self-splicing fitness (ln)” value is -1.97 ± 0.2. As to CUUGAGCAAUAUUACGAAUU, the “self-splicing fitness (ln)” value was -3.53 ± 0.33 (30 °C) and -3.19 ± 0.47 (37 °C).

For the sequence CUUGAGCAAUAUUACGACGA, the “self-splicing fitness (ln)” value (30 °C) was -2.83 ± 0.42 and the “self-splicing fitness (ln)” value (37 °C) was -2.51 ± 0.45. As to CUUGAGCAAUAUUACGACGU, the “self-splicing fitness (ln)” value (30 °C) was -3.62 ± 0.35 and the “self-splicing fitness (ln)” value (37 °C) is -2.25 ± 0.21. As to CUUGAGCAAUAUUACGAGCC, the “self-splicing fitness (ln)” value (30 °C) is -1.39 ± 0.33. In the case of CUUGAGCAAUAUUACGCAUU, under “37 °C”, the “self-splicing fitness (ln)” value was -2.02 ± 0.35.

On to CUUGAGCAAUAUUACGCCAC, for which the “self-splicing fitness (ln)” value (30 °C) was -2.82 ± 0.49. As for CUUGAGCAAUAUUACGCCUA, the “self-splicing fitness (ln)” value (37 °C) is -3.13 ± 0.44. On to CUUGAGCAAUAUUACGCGCA, for which the “self-splicing fitness (ln)” value by setting is: (30 °C) -2.81 ± 0.27; (37 °C) -2.23 ± 0.33.

Turning to CUUGAGCAAUAUUACGCGCU, the “self-splicing fitness (ln)” value is, setting by setting: (30 °C) -2.45 ± 0.29; (37 °C) -1.22 ± 0.39.

On to CUUGAGCAAUAUUACGGAGC, for which the “self-splicing fitness (ln)” value (37 °C) was -1.42 ± 0.29. Take CUUGAGCAAUAUUACGGAGG: the “self-splicing fitness (ln)” value reads like this: (30 °C) -2.13 ± 0.19; (37 °C) -1.67 ± 0.16.

CUUGAGCAAUAUUACGGAUG: the “self-splicing fitness (ln)” value reads like this: (30 °C) -1.75 ± 0.11; (37 °C) -0.176 ± 0.11. Taken in the same sequence, the figures for CUUGAGCAAUAUUACGGCAG were -1.01 ± 0.11 and -0.0287 ± 0.15.

For the sequence CUUGAGCAAUAUUACGGCCU, the “self-splicing fitness (ln)” value (30 °C) was -3.92 ± 0.37.

Turning to CUUGAGCAAUAUUACGGCGC, the “self-splicing fitness (ln)” value is -3.72 ± 0.43 (30 °C) and -1.55 ± 0.41 (37 °C). Taken in the same sequence, the figures for CUUGAGCAAUAUUACGGCGG were -1.13 ± 0.1 and -0.746 ± 0.14. Taken in the same sequence, the figures for CUUGAGCAAUAUUACGGUCA were -1.65 ± 0.18 and -3.58 ± 0.46. Taken in the same sequence, the figures for CUUGAGCAAUAUUACGUAUA were -3.5 ± 0.2 and -2.96 ± 0.28. On to CUUGAGCAAUAUUACGUAUC, for which the “self-splicing fitness (ln)” value was -3.35 ± 0.19 (30 °C) and -3.22 ± 0.33 (37 °C). As for CUUGAGCAAUAUUACGUCUA, the “self-splicing fitness (ln)” value (30 °C) is -2.76 ± 0.46. CUUUAGCAAUAUUACGAAGG: the “self-splicing fitness (ln)” value runs as follows: (30 °C) -1.23 ± 0.11; (37 °C) -1.85 ± 0.21.

Regarding CUUUAGCAAUAUUACGACUA, the “self-splicing fitness (ln)” value (37 °C) was -1.32 ± 0.42.

Consider CUUUAGCAAUAUUACGACUG, for which the “self-splicing fitness (ln)” value (30 °C) is -0.867 ± 0.094 and the “self-splicing fitness (ln)” value (37 °C) was 0.418 ± 0.15. Taken in the same sequence, the figures for CUUUAGCAAUAUUACGAGAG were -4.26 ± 0.34 and -2.03 ± 0.28.

As for CUUUAGCAAUAUUACGAUAA, the “self-splicing fitness (ln)” value is -2.76 ± 0.15 (30 °C) and -2.64 ± 0.28 (37 °C). The like results for CUUUAGCAAUAUUACGAUGA were, in that order, -3.2 ± 0.25 and -2.01 ± 0.18.

As to CUUUAGCAAUAUUACGAUGC, under “30 °C”, the “self-splicing fitness (ln)” value is -2.95 ± 0.24. Turning to CUUUAGCAAUAUUACGCACU, the “self-splicing fitness (ln)” value is, setting by setting: (30 °C) -3.69 ± 0.44; (37 °C) -1.83 ± 0.19. The like results for CUUUAGCAAUAUUACGCCCA were, in that order, -2.92 ± 0.48 and -1.54 ± 0.38. The like results for CUUUAGCAAUAUUACGCUUG were, in that order, -2.98 ± 0.16 and -2.32 ± 0.17.

Turning to CUUUAGCAAUAUUACGGCAU, the “self-splicing fitness (ln)” value is -3.42 ± 0.39 (30 °C) and -2.9 ± 0.4 (37 °C). In the case of CUUUAGCAAUAUUACGGCCC, the “self-splicing fitness (ln)” value (30 °C) was -1.71 ± 0.47. Turning to CUUUAGCAAUAUUACGGCGG, the “self-splicing fitness (ln)” value reads like this: (30 °C) -0.763 ± 0.093; (37 °C) -0.528 ± 0.12. Turning to CUUUAGCAAUAUUACGGCUC, the “self-splicing fitness (ln)” value (37 °C) is -2.16 ± 0.46.
